Measured values: US7572594B2, “Screening assays for agonists or antagonists or receptor activator of NF-κB” (Immunex Corporation, priority 2000, dated 2009)

Key:
[1] = system: endogenous c-jun kinase (JNK); test: JNK immune-complex kinase assay in transfected 3T3 cells; type: cell-based, murine; settings: 3T3 cells 24 hours after transfection, absence of RANK-L stimulation
Protocol: This example describes evaluating murine 3T3 cells transfected with plasmids containing DNA encoding human FEO RANK (SEQ ID NO:9), and murine 3T3 cells expressing recombinant DNA encoding human wild type RANK (SEQ ID NO:1) for their relative ability to activate endogenous c-jun kinase (JNK) in the absence of RANK-L stimulation. JNK is known to be activated as a consequence of RANK signal transduction.
For JNK assays, whole cell extracts were prepared from 3T3 cells 24 hours after transfection. Cells were lysed in a buffer containing 20 mM HEPES, pH 7.4, 2 mM EGTA, 50 mM β-glycerol phosphate, 1 mM DTT, 1 mM sodium orthovanadate, 1% Triton-X 100, 10% glycerol and the protease inhibitors leupeptin, pepstatin A, and PMSF. Clarified lysates were immunoprecipitated with 1 μg each anti-JNK (FL) and anti-JNK (C17) antibodies (both from Santa Cruz Biotechnology, Inc. Santa Cruz, Calif.). […] JNK activity was determined by an immune-complex assay using 1 μg of a fusion protein of glutathione-S-transferase and amino acids 1-169 of […] (GST-cJun (1-169)) (UBI, Lake Placid, N.Y.) and 5 μCi of [^32P]-ATP as substrate in 40 μl of assay buffer at 30° C. for 20 min. […]

[2] = system: murine MMP-9 promoter (SEQ ID NO:11); test: murine MMP-9 promoter/luciferase reporter in 293/EBNA cells; type: cell-based; settings: 40 ng reporter
From the text: This example describes the activation of the TRAP promoter. A 2.6 kb DNA fragment containing the human TRAP promoter was obtained by digesting the plasmid pBL2HT2.2 with the restriction endonuclease ApaI. The cloning of the human TRAP gene 5′ region and the construction of pBL2HT2.2 are fully described in Reddy et al. (Bone 16:587-593 (1995)). A DNA containing the mouse TRAP promoter (SEQ ID NO:12) and a DNA containing the murine MMP-9 promoter (SEQ ID NO:11) also were used for these experiments. DNAs containing the promoters were fused to the luciferase reporter gene. These promoter/reporter constructs were transfected into human 293/EBNA cells along with various combinations of expression vectors that encoded full-length human RANK (SEQ ID NO:2) and human full-length RANK-L proteins (SEQ ID NO:6).
For the murine MMP-9 promoter experiments, 4.1 kb of the murine MMP-9 promoter (SEQ ID NO:11) were fused to a luciferase gene and transfected (40 ng) into 293/EBNA cells. Transfection of either RANK (SEQ ID NO:2) alone or the combination of RANK (SEQ ID NO:2) plus RANK-L (SEQ ID NO:6) increased reporter expression 2.5-fold.

RANK = test: radioimmune assay of reporter surface expression in 293/EBNA cells; type: cell-based; settings: 48 hours after transfection
Protocol: Additionally, surface expression of human IL-2α receptor can be analyzed using a radioactive antibody against IL-2α receptor. For the mIL-4R-specific radioimmune assay, mouse anti-human IL-2α monoclonal antibody reactive with mIL-4R was labeled with ^125I via a Chloramine T conjugation method; the resulting specific activity is typically […]. After 48 hours, cells transfected with pGL2-MMP-9/human IL-2 receptor were washed once with media (DMEM, 12 5% FBS). Non-specific binding sites were blocked by the addition of pre-warmed binding media containing 5% non-fat dry milk and incubation at 37° C./5% CO2 in a tissue culture incubator for one hour. The blocking media was decanted and binding buffer containing ^125I anti-mIL-4R (clone M1; rat IgG1) was added to the cells and incubated with rocking at room temperature for 1 hour. After incubation of the cells with the radio-labeled antibody, cells were washed extensively with binding buffer (2 X) and twice with phosphate-buffered saline (PBS). Cells were lysed in 1 ml of 0.5M NaOH, and total radioactivity measured with a gamma counter.

[3] = system: primary hematopoietic cells from the RANK −/− mice; test: F-actin ring formation, phalloidin staining; type: cell-based, mouse; settings: 5 days in 40 ng/ml CSF-1 and 200 ng/ml mRANK-L
From the text: To detect F-actin rings, cells are fixed, such as by exposure to 3% paraformaldehyde, and visualized by staining cells with a fluorescent probe that binds specifically with actin. A suitable fluorescent tag is phalloidin, which can be obtained from Molecular Probes, Eugene, Oreg. The fluorescent signal is detected, for example, using a standard fluorescent microscope, and the number of cells having F-actin rings is visually quantified. An F-actin ring is identified as a continuous ring of F-actin at the periphery of a cell, and these distinct structures are visible through a microscope.
A procedure to detect F-actin rings was carried out as follows. Primary hematopoietic cells from the RANK −/− mice were infected with retroviral constructs encoding either the full-length human RANK cDNA or the RANK/TRAF6 binding mutant (RANK Δ340-421). Cells were cultured on LabTek Chamber slides with #1 borosilicate coverglasses (Nalge/Nunc). After incubation for 5 days in MEM containing 10% fetal bovine serum containing 40 ng/ml CSF-1 and 200 ng/ml mRANK-L. The media was aspirated, washed twice in PBS and then fixed in a solution of 3% paraformaldehyde for 10 minutes, followed by quenching in 50 mM NH4Cl. […] The fluorescent signal was detected using a standard fluorescent microscope, and F-actin rings were identified as continuous rings of F-actin at the periphery of individual cells.

B1: wild type RANK: full-length human RANK, receptor activator of NF-κB (SEQ ID NO:2), expressed from vector or retrovirus (protein, listed as Homo sapiens)
chain: MAPRARRRRPLFALLLLCALLARLQVALQIAPPCTSEKHYEHLGRCCNKCEPGKYMSSKCTTTSDSVCLPCGPDEYLDSWNEEDKCLLHKVCDTGKALVAVVAGNSTTPRRCACTAGYHWSQDCECCRRNTECAPGLGAQHPLQLNKDTVCKPCLAGYFSDAFSSTDKCRPWTNCTFLGKRVEHHGTEKSDAVCSSSLPARKPPNEPHVYLPGLIILLLFASVALVAAIIFGVCYRKKGKALTANLWHWINEACGRLSGDKESSGDSCVSTHTANFGQQGACEGVLLLTLEEKTFPEDMCYPDQGGVCQGTCVGGGPYAQGEDARMLSLVSKTEIEEDSFRQMPTEDEYMDRPSQPTDQLLFLTEPGSKSTPPFSEPLEVGENDSLSQCFTGTQSTVGSESCNCTEPLCRTDWTPMSSENYLQKEVDSGHCPHWAASPSPNWADVCTGCRNPPGEDCEPLVGSPKRGPLPQCAYGMGLPPEEEASRTEARDQPEDGADGRLPSSARAGAGSGSSPGGQSPASGNVTGNSNSTFISSGQVMNFKGDIIVVYVSQTSQEGAAAAAEPMGRPVQEETLARRDSFAGNGPRFPDPCGGPEGLREPEKASRPVQEQGGAKA
- activation of JNK [1]: not
- increase of reporter expression (luciferase) [2]: 2.5 fold
- transcriptional activation, reporter detected on the cell surface (RANK): resulted in transcription of muIL-4R
- cells with F-actin rings [3]: more than 50%
